In patent publication US20200230168, “NUCLEIC ACID OLIGOMERS AND USES THEREFOR” (Queensland University of Technology, published 2020):

Experiments:
[1] = biological target: T1, hSSB1 (Homo sapiens, UniProt Q9BQ15 Q9BQ15:1-211); test: SPR; LSA_In3E3 = 1
[2] = biological target: T2, THOC4 (ALYREF) (UniProt Q86V81 Q86V81:2-257); test: EMSA; 10 mM Tris pH 8.0, 100 mM NaCl, 1 mM EDTA, 37C
[3] = biological target: hSSB2 (Homo sapiens, UniProt Q96AH0 Q96AH0:1-204); test: EMSA; Tris pH 7.5, 100 mM KCl, 1 mM EDTA, 37C; single EMSA; conditions: label: FAM
hSSB2, sequence (Q96AH0 whole entry, one chain of several): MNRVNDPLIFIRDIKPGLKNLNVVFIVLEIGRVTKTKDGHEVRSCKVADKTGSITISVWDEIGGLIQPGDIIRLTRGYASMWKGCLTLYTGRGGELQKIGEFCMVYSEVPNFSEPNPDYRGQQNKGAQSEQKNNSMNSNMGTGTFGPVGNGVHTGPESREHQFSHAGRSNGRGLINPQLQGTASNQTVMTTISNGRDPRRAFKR
Experimental: FIG. 16 is a graphic representation of a single EMSA showing increasing concentrations of hSSB2 protein vs. 5 nM of FAM-labeled LSA_In3E3 sequence or negative control sequence (Neg_C) in phosphorothioate chemistry. Graphs represent the fraction of oligo bound to the protein. Purified protein was incubated with 5 nM of labeled oligo for 15 min at 37° C. in a buffer consisting of 10 mM Tris-HCl (pH7.5), 100 mM KCl, 0.01% IGEPAL, 1 mM EDTA and 50 ng/μL BSA.
(§1) FAM-labeled non-targeting PS compound, LSA_In3E3, PD compounds, DNA_In3E3 and RNA_In3E3, and a negative control oligomer compound, NEGC, were incubated separately with purified mouse SSB1 (mSSB1), hSSB1 and human SSB2 (hSSB2) proteins.

[4] = biological target: T3, mSSB1 (Mus musculus, UniProt Q8R2Y9 Q8R2Y9:1-212); test: EMSA; 1 mM EDTA, 37C; conditions: label: FAM
T3 sequence (Q8R2Y9 whole entry, one chain of several): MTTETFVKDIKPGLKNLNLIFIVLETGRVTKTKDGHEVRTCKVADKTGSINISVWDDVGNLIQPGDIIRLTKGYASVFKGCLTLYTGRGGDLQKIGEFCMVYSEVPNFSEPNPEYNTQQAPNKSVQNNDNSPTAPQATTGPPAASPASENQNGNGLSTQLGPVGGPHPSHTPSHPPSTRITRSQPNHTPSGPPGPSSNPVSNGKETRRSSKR
Experimental: as §1

[5] = biological target: T1, hSSB1; test: EMSA; 10 mM Tris, 1 mM EDTA, 37C; Table 7 gives 3 nM; conditions: label: FAM
Experimental: (§2) FIG. 15 is a graphic representation of hSSB1 EMSAs showing increasing concentrations of hSSB1 protein vs. 5 nM of FAM-labeled LSA_In3E3 sequence in either phosphorothioate (PS) or phosphodiester (PD) chemistry, or negative control sequence (Neg_C) in phosphorothioate chemistry. Graphs represent quantification of at least triplicate experiments, expressed as the fraction of oligomer compound bound to the protein. Purified protein was incubated with 5 nM of labeled oligomer compound for 15 min at 37° C. in a buffer consisting of 10 mM Tris-HCl (pH7.5), 100 mM KCl, 0.01% IGEPAL, 1 mM EDTA and 50 ng/μL BSA.
as §1

[6] = biological target: T2, THOC4 (ALYREF); test: SPR; LSA_In3E3 = 1
[7] = biological target: T3, mSSB1; test: EMSA; conditions: label: FAM
Experimental: as §1

[8] = biological target: T1, hSSB1; test: EMSA; 10 mM Tris, 1 mM EDTA, 37C; Table 7 gives 9 nM; conditions: label: FAM
Experimental: as §2, §1

[9] = biological target: T1, hSSB1; test: EMSA; conditions: label: FAM
Experimental: as §2, §1

T1 sequence (Q9BQ15 whole entry, one chain of several): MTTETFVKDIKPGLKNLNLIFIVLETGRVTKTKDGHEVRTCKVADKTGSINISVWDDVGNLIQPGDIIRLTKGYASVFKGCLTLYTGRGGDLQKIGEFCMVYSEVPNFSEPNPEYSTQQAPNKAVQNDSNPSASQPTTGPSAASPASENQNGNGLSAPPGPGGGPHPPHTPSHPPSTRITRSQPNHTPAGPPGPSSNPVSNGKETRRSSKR

B1: ASO_E3E4 (ssRNA)
RNA: CUGAAGCGUACCCUUUGGUG
modifications: 2'-OMe all, PS all
binding signal [1]: 0.75 normalized Rmax | Kd [2]: 0.07 µM

B2: LSA_In3E3 (ssRNA)
RNA: CCAGUGAGCCGGACUUGCCU
modifications: 2'-OMe all, PS all
binding result [3]: binds | Kd [4]: 0.00413 µM | Kd [5]: 0.00329 µM | Kd [2]: 0.081 µM

B3: cdca3_A_ATG-3 (ssRNA)
RNA: CUCUUGGCUGAGCCCAUCUC
modifications: 2'-OMe all, PS all
binding signal [1]: 1.3 normalized Rmax | Kd [2]: 0.134 µM

B4: In3E3 both-end truncation 8 nt (ssRNA)
RNA: AGCCGGAC
modifications: 2'-OMe all, PS all [2'-OMe at 1-8 (all); PS at all linkages]
binding signal [6]: -0.07 normalized Rmax | binding signal [1]: 0.07 normalized Rmax

B5: Neg_C (ssRNA)
RNA: CUCAUUCCUACCGACACCCC
modifications: 2'-OMe all, PS all
Kd [7]: 0.0154 µM | Kd [8]: 0.01 µM | Kd [2]: 0.15 µM

B6: DNA_In3E3 (ssDNA)
DNA: CCAGUGAGCCGGACUUGCCU
modifications: deoxyuridine in place of T, phosphodiester
Kd [7]: 0.0131 µM | Kd [9]: 0.0135 µM

B7: Open_A_1 (ssRNA)
RNA: GUGCAUGGAAUCACGGAGUG
modifications: 2'-OMe all, PS all
Kd [2]: 0.052 µM

B8: Open_L_1 (ssRNA)
RNA: CACGUACCUUAGUGCCUCAC
modifications: 2'-OMe all, PS all
binding signal [1]: 0.8 normalized Rmax | Kd [2]: 0.104 µM

B9: LSA_In3E3_CT5 (ssRNA)
RNA: CGCGUCACUCGCACUCGCCU
modifications: 2'-OMe all, PS all
binding signal [1]: 0.46 normalized Rmax | Kd [2]: 0.125 µM

B10: cdca3_L_ATG-3 (ssRNA)
RNA: GAGAACCGACUCGGGUAGAG
modifications: 2'-OMe all, PS all
binding signal [1]: 1.09 normalized Rmax | Kd [2]: 0.058 µM

B11: RNA_In3E3 (ssRNA)
RNA: CCAGUGAGCCGGACUUGCCU
modifications: phosphodiester, unmodified ribose
Kd [9]: 0.137 µM
